Assay results as given in US20060287508A1 (Chugai, published 2006).
Positions count from the first letter of the chain named. Names and notes keep the numbering of the source.

Legend:
[1] = target: T1, hTF (Thromborel S) (human, UniProt P13726 33-295); experiment: cell-based or functional assay
[2] = target: T2, shTF (human, UniProt P13726 33-251, limits assumed); experiment: competitive ELISA on coated shTF against biotinylated anti-human TF antibody; anion exchange main peak
T2 construct: also called human tissue factor
Procedure: (§1) shTF was adjusted to 20 nM with coating buffer (hereafter, indicated as CB), dispensed at 100 μl/well into a 96-well plate and incubated at 4° C. overnight. Each well was washed three times with rinse buffer (hereafter, indicated as RB); 200 μl dilution buffer (hereafter, indicated as DB) was added to each well. The plate was left standing at room temperature for 2 hours for blocking. […] The plate was washed three times with RB. After 100 μl ALP-streptavidin diluted 5,000-fold with DB was dispensed to each well, the plate was left standing for 1 hour at room temperature. Each well was washed 5 times with RB, and SIGMA104 adjusted with substrate buffer (hereafter, indicated as SB) to 1 mg/ml was dispensed to each well. Plates were left standing for 30 min at room temperature for color development and measured with a microplate reader at a wavelength of 405 nm and a control wavelength of 655 nm.
This was taken as the binding activity.

[3] = target: T2, shTF; experiment: TF binding activity after 4 weeks at 40 C, pH 7.5, against own initial value (FIG. 13B)
[4] = target: T1, hTF (Thromborel S); experiment: cell-based or functional assay; remark: listed apart in the source
[5] = target: T2, shTF; experiment: competitive ELISA on coated shTF against biotinylated anti-human TF antibody; anion exchange subpeak
Procedure: as §1
This was taken as the binding activity.

T1 sequence (P13726 33-295 limits assumed): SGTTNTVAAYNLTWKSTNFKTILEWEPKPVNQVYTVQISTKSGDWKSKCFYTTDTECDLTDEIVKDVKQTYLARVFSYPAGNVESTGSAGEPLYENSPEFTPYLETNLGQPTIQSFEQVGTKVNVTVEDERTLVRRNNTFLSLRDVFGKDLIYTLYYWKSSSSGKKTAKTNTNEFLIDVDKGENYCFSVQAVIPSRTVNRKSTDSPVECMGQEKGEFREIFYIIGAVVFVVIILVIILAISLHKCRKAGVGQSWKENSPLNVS
T2 sequence (P13726 33-251 limits assumed): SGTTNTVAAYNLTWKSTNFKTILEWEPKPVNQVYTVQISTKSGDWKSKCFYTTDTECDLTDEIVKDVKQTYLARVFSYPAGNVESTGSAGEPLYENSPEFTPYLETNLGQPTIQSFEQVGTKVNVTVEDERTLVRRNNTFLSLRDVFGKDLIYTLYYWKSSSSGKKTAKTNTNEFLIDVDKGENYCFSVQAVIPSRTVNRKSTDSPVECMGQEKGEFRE

B1: anti-human TF antibody N28D mutant (antibody, human IgG4 S228P, kappa, V domains shown)
VH: QVQLLESGAVLARPGTSVKISCKASGFDIKDYYMHWVKQRPGQGLEWIGGNDPANGHSMYDPKFQGRVTITADTSTSTVFMELSSLRSEDTAVYYCARDSGYAMDYWGQGTLVTVSS
VL: DIQMTQSPSSLSASVGDRVTITCKASQDIKSFLSWYQQKPEKAPKSLIYYATSLADGVPSRFSGSGSGTDYTLTISSLQPEDFATYYCLQHGESPYTFGGGTKVEIKR
[1]
  Calculated concentration (ng/ml) at 250 ng/ml added: 253 ng/mL

B2: anti-human TF antibody described in WO 99/51743 (humanized heavy chain version i, humanized light chain version b2) (antibody, human IgG4 S228P, kappa, V domains shown)
VH: B1 VH with D28N
VL: B1 VL
notes: Expressed as human IgG from vector pN5KG4P-AHi-ALb2; also called original anti-human TF antibody; Original
[1]
  Calculated concentration (ng/ml) at 250 ng/ml added: 248 ng/mL
  Neutralizing activity ratio (%): 99.1%
[2]
  Binding Activity, Peak 1 (% of standard antibody): 100%
[3]
  TF binding activity after 4 weeks of accelerated testing (% of its activity before): ~60%
[4]
  TF neutralizing activity (Equation 2, relative to standard antibody): 66%
  TF neutralizing activity after accelerated testing at 40 C for 4 weeks, relative to the initial value: ~40%
[5]
  Binding Activity, Peak 2 (% of standard antibody): 70.6%

B3: anti-human TF antibody N51D mutant (antibody, human IgG4 S228P, kappa, V domains shown)
VH: B1 VH with D28N, N51D
VL: B1 VL
[1]
  Calculated concentration (ng/ml) at 250 ng/ml added: 164 ng/mL

B4: anti-human TF antibody N51D/N55D double mutant (antibody, human IgG4 S228P, kappa, V domains shown)
VH: B1 VH with D28N, N51D, N55D
VL: B1 VL
[1]
  Calculated concentration (ng/ml) at 250 ng/ml added: 31.3 ng/mL

B5: anti-human TF antibody N55D mutant (antibody, human IgG4 S228P, kappa, V domains shown)
VH: B1 VH with D28N, N55D
VL: B1 VL
[1]
  Calculated concentration (ng/ml) at 250 ng/ml added: 49.8 ng/mL
